Reference: paper PMC5924885 (Proceedings of the National Academy of Sciences of the …, 2018)

Molecular target: Akt1 kinase domain (Akt1^KD) (human, UniProt P31749 144-472, exclusively monophosphorylated, predominantly in the turn motif (T450))
Assay: fluorescence polarisation

Akt1 kinase domain (Akt1^KD), sequence (P31749 144-472): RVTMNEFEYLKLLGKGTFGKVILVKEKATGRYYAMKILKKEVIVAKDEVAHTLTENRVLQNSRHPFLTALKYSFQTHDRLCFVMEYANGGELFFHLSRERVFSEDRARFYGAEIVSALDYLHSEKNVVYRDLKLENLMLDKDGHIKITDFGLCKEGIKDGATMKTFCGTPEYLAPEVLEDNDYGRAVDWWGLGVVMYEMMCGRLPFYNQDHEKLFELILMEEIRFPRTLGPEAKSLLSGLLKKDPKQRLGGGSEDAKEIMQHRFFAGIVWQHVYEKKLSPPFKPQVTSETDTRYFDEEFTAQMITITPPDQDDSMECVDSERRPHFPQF

B1: Atto488-labeled Akt1 PH domain (Akt1^1-120 T101C) (domain or fragment, human, UniProt P31749 1-120, looked up)
chain: MSDVAIVKEGWLHKRGEYIKTWRPRYFLLKNDGTFIGYKERPQDVDQREAPLNNFSVAQCQLMKTERPRPNTFIIRCLQWTTVIERTFHVETPEEREEWTCAIQTVADGLKKQEEEEMDF
modifications: Atto488 (maleimide) label, about 50% labeling efficiency
In the case of B1, the Kd is reported as 7 µM.
